Here are results for eleven molecules from patent US20070065439A1 (Amgen, published 2007).

Positions count from the first letter of the chain named.

To fix the notation:
B1: 6.26.1 (antibody, human IgG4, V domains shown)
VH: QLQLQESGPGLVKPSETLSLTCTVSGGSISRSSYYWGWIRQPPGKGLEWMGNIYYSGSTHYNPSLKSRVTISVDTSKNQFSLKLSSVTAADTAVFYCAKGREYISSSGYGMDVWGQGTTVTVS
VL: SYELTQPPSVSVSPGQTASITCSGDKLGNKYVCWYQQKPGQSPVLVIFQDSRRPSGIPERFSGSNSGNTATLTISGTQAMDEADYYCQAWDTSTVIFGGGTKLTVL
notes: lambda; also called 6.26.4
B2: 5.36.1 (antibody, human IgG4, V domains shown)
VH: QVQLQQSGPGLVKPSQTLSLTCAISGDSVSSNSAAWNWIRQSPSRGLEWLGRTYYRSKWYNDYAVSVKSRITINPDTSKNQFSLQLNSVTPEDTAVYYCAREEQQLVRYYYYYGMDVWGQGTTVTVS
VL: DIVMTQTPLSLSVTPGQPASISCKSSQSLLHSDGRTYLYWYLQRPGQPPQLLIYEASYRFSGVPDRFSGSGSGTDFTLKISRVEAEDVGIYYCMQSIQLPRTFGQGTRLEIK
notes: kappa
B3: 9.31.1 (antibody, human IgG4, V domains shown)
VH: QVQLVESGGGLVKPGGSLRLSCAASGFTFSDYYMSWIRQAPGKGLEWVSYIRSSGSTIYYADSVKGRFTISRDNAKNSLYLQMNSLRAEDTAVYYCARTPYSGRYHWYFDLWGRGTLVTVS
VL: SYELTQPPSVSVSPGQTARITCSGDALPIKYAYWYQHKSGQAPVLVIYEDSKRPSGIPERFSGSSSGTMATLTISGAQVEDEADYYCYSTDSSGNHRVFGGGTKLTVL
notes: lambda; also called 9.31.3
B4: 8.6.1 (antibody, human IgG4, V domains shown)
VH: QVQLQESGPGLVKPSETLSLTCTVSGGSVSSGGYYWSWVRQPPGKGLEWIGCIYFSESTNYNPSLKSRVTISVDTSKNQFSLKLSSVTAADTAVYYCARDPMHYYGMDVWGQGTTVTVSS
VL: SFELTQPPSVSVSPGQTASITCSGDKLGDKFACWYQQKPGQSPVLVIYQDTKRPSGIPERISGSNSGNTATLTISGTQAMDEADYYCQAWDSSTYVVFGGGTKLTVL
notes: lambda; also called 8.6.3
B5: 9.26.1 (antibody, human IgG4, V domains shown)
VH: QVQLVESGGGVVQPGRSLRLSCAASGFTFNNYGMHWVRQAPGKGLECVAVIWYDGGNKYYADSVKGRFAISRDNSKNTLYLQMNSLRAEDTAVYYCTAVTKLNYYYGMDVWGQGTTVTVS
VL: QSALTQPASVSGSPGQSITISCTGTSSDVGGYNYVSWYQQHPGKAPKLMIYEVSNRPSGVSNRFSGSKSGNTASLTISGLQAEDEADYYCSSYTSSSILVFGGGTKLTVL
notes: lambda; also called 9.26.3
B6: 6.33.1 (antibody, human IgG4, V domains shown)
VH: QVQLVESGGGVVQPGRSLRLSCAASGFTFSVYGMHWVRQAPGKGLEWVAVIWYDGSNKYYADSVKGRFTISRDNSKNTLYLQMNSLRAEDTAVYYCAREKSSGWFFDYWGQGTLVTVSS
VL: B5 VL with G31S, Y34L, N55K, V60I, S91C, T94A, S95G, S96N, L99W
notes: lambda; also called mAb 6.33.1
B7: 9.11.1 (antibody, human IgG4, V domains shown)
VH: B6 VH with S56N, A61V, M83L, K100R, G103S, F105Y
VL: B5 VL with P14S, G31S, Y34L, N55K, S91C, T94A, S95G, S96N, I98N, L99W
notes: lambda; also called 9.11.3
B8: 9.19.1 (antibody, human IgG4, V domains shown)
VH: B5 VH with G114R
VL: B5 VL with L48F
notes: lambda; also called mAb 9.19.1
B9: 9.2.1 (antibody, human IgG4, V domains shown)
VH: B5 VH with K101T, N103Y
VL: B5 VL
notes: lambda
B10: 4.20.1 (antibody, human IgG4, V domains shown)
VH: QVQLVESGGGVVQPGRSLRLSCAASGFTFSNYGMNWVRQAPGKGLEWVAVIWYDGNNKSEADSVKGRFTISRDNSKNTLYLQMNSLRAEDTAVYYCARDSRSGPFDYWGQGTLVTVSS
VL: EIVLTQSPDFQSVTPKEKVTITCRASQSIGSSLHWYQQKPDQSPKLLIKFASQSFSGVPSRISGSGSGTDFTLTINSLEAEDAATYYCHQSSSLPFTFGPGTKVDIK
notes: kappa; also called 4.20.2
B11: 8.50.1 (antibody, human IgG4, V domains shown)
VH: QVQLQESGPGLVKPSETLSLTCTVSGGSISSDYWSWIRQPAGKGLEWIGRFYNSGRTNYRPSLKSRITMSVDTSKNQFSLKLSSVTAADTAVYYCARDMYSGRGNWYFDLWGRGTLVTVS
VL: B3 VL with I29K, H37Q, G94D
notes: lambda

In one assay the target is T1, Recombinant human IL-1beta (rhIL-1b) (human, UniProt P01584 117-269). In words: cell-based or functional assay.
With B1, the “% IL-6 production, supernatant 1:5 dilut.” value was 9%; the “% IL-6 production, supernatant 1:10 dilut.” value was found to be 8%; the “% IL-6 production, supernatant 1:20 dilut.” value is 22%.
With B2, the “% IL-6 production, supernatant 1:5 dilut.” value came out at 6%; the “% IL-6 production, supernatant 1:10 dilut.” value was 8%; the “% IL-6 production, supernatant 1:20 dilut.” value was 18%.
Take B3: the “% IL-6 production, supernatant 1:5 dilut.” value was determined as 6%; the “% IL-6 production, supernatant 1:10 dilut.” value was 23%; the “% IL-6 production, supernatant 1:20 dilut.” value is 13%.
In the same order, the values of B4 are 6%, 8% and 23%.
In the same order, the values of B5 are 12%, 27% and 27%.
In the same order, the values of B6 are 13%, 22% and 22%.
Consider B7, for which the “% IL-6 production, supernatant 1:5 dilut.” value came out at 4%; the “% IL-6 production, supernatant 1:10 dilut.” value came to 3%; the “% IL-6 production, supernatant 1:20 dilut.” value came out at 10%.
Regarding B8, the “% IL-6 production, supernatant 1:5 dilut.” value is 5%; the “% IL-6 production, supernatant 1:10 dilut.” value came out at 10%; the “% IL-6 production, supernatant 1:20 dilut.” value came to 15%.
In the case of B9, the “% IL-6 production, supernatant 1:5 dilut.” value is 4%; the “% IL-6 production, supernatant 1:10 dilut.” value came out at 8%; the “% IL-6 production, supernatant 1:20 dilut.” value came to 16%.

The target of the next assay is T1, Recombinant human IL-1beta (rhIL-1b). Put plainly: cell-based or functional assay. This is another data set of the same source.
B1: the “EC50, inhibition of IL-1β-induced IL-6 production in MRC-5 cells” value (from here on “EC50, inhibition”) was 0.591 nM.
The same measure, in the same setting: the same measure for B2: 3.15 nM.
Consider B3, for which the “EC50, inhibition” value turned out to be 14.3 nM.
With B4, the “EC50, inhibition” value came out at 1.59 nM.
Still for that read-out and setting: the same measure for B5: 5.68 nM.
Still for that read-out and setting: the value for B6 was 1.06 nM.
For B7, the “EC50, inhibition” value came to 2.67 nM.
Still for that read-out and setting: the value for B8 was 2.91 nM.
For the molecule B9, the “EC50, inhibition” value amounted to 5.47 nM.

A further assay shares this target. In words: Biacore, Low Resolution screen. In general terms: SPR reads the build-up and loss of mass on a sensor chip optically.
Regarding B1, the Kd (in general, the equilibrium constant for the complex coming apart) was 0.478 nM.
For the molecule B2, the Kd worked out at 0.712 nM.
As for B4, the Kd was determined as 1.23 nM.
B6: the Kd was 0.32 nM.
Same read-out and setting: the value for B7 was 0.29 nM; that for B9 was 0.747 nM.

The next assay has the same target. In words: Biacore high-res, mAb amine-coupled, 23C.
For the molecule B6, the Kd stood at 0.236 nM; the koff (as a rule, the first-order rate constant of dissociation) stood at 0.000259 s⁻¹; the on-rate constant (kon) (as a rule, the second-order rate constant of association) was determined as 1.1e+06 M⁻¹ s⁻¹.
For B8, the Kd turned out to be 0.262 nM, the koff amounted to 0.00019 s⁻¹ and the kon was 727000 M⁻¹ s⁻¹.

The target of a further assay is T2, IL-1β R4A mutant (human, UniProt P01584 117-269).
T2 construct: site-directed mutant
In words: binding to site-directed IL-1β mutant; X = abrogation of binding.
With B10, the binding result is given as “no binding”.
Take B2: the binding result is reported as “no binding”.

The target in the next assay is T3, IL-1β R11A mutant (human, UniProt P01584 117-269).
T3 construct: site-directed mutant
The assay is described as above.
For B10, the binding result was “no binding”.
Turning to B1, the binding result is “no binding”.
The same measure, in the same setting: the same measure for B2: “no binding”; for B3: “no binding”; for B11: “no binding”.
The same measure, in the same setting: the value for B6 was “no binding”; that for B7 was “no binding”.
As for B9, the binding result is “no binding”.

In another assay the target is T1, Recombinant human IL-1beta (rhIL-1b). In words: Biacore, Medium Resolution; IL-1β in solution; medium-resolution Biacore.
Consider B1, for which the Kd is 0.2 nM, the koff was determined as 0.00038 s⁻¹ and the kon was 1.9e+06 M⁻¹ s⁻¹.
As to B2, the Kd came out at 0.58 nM, the koff amounted to 0.00058 s⁻¹ and the kon came out at 1e+06 M⁻¹ s⁻¹.
As for B4, the Kd came out at 0.82 nM.
Take B6: the Kd turned out to be 0.14 nM, the koff was 0.00014 s⁻¹ and the association rate constant (kon) was found to be 970000 M⁻¹ s⁻¹.
The like results for B7 were, in that order, 0.14 nM, 0.00023 s⁻¹ and 1.6e+06 M⁻¹ s⁻¹.
Consider B8, for which the Kd amounted to 0.063 nM, the koff came out at 4e-05 s⁻¹ and the on-rate (kon) is 640000 M⁻¹ s⁻¹.
On to B9, for which the Kd was found to be 0.29 nM, the koff came out at 0.00035 s⁻¹ and the kon worked out at 1.2e+06 M⁻¹ s⁻¹.

The target is the same in the next assay. Put plainly: Biacore low-res, mAb captured, 25C; IL-1β in solution (118 nM) over captured mAb; low-resolution Biacore, 25 C.
With B10, the Kd is 5 nM.
Consider B1, for which the Kd worked out at 0.478 nM, the koff is 0.00044 s⁻¹ and the kon amounted to 920000 M⁻¹ s⁻¹.
In the same order, the values of B2 are 0.712 nM, 0.00042 s⁻¹ and 590000 M⁻¹ s⁻¹.
For the molecule B3, the Kd amounted to 5.76 nM, the koff came out at 0.0038 s⁻¹ and the kon amounted to 660000 M⁻¹ s⁻¹.
The like results for B11 were, in that order, 9 nM, 0.027 s⁻¹ and 3e+06 M⁻¹ s⁻¹.
As to B4, the Kd was 1.23 nM.
As to B5, the Kd turned out to be 0.854 nM, the koff is 0.00035 s⁻¹ and the kon was 410000 M⁻¹ s⁻¹.
In the same order, the values of B6 are 0.32 nM, 0.00016 s⁻¹ and 500000 M⁻¹ s⁻¹.
In the same order, the values of B7 are 0.29 nM, 0.0002 s⁻¹ and 690000 M⁻¹ s⁻¹.
In the same order, the values of B8 are 0.268 nM, 0.00015 s⁻¹ and 560000 M⁻¹ s⁻¹.
Regarding B9, the Kd was 0.747 nM, the koff is 0.00074 s⁻¹ and the kon turned out to be 990000 M⁻¹ s⁻¹.
